Test results: the supplement of paper PMC11136658

Test system: peptide library, one residue held at a place counted from the Y acceptor
Assay: relative phosphorylation of the sub-library (ratio to the mean residue at this position); higher = residue favoured
Outline: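 Every value reflects phosphorylation relative to the mean randomized residue. The sum of the 18 randomized residues, or 16 in the Ser/Thr-free library, served to normalize intensities at each position, which were then multiplied by that number. Intensities came from phosphorimaging with ImageQuant of biotinylated Tyr-centred peptides captured on streptavidin membranes after 90 min with purified recombinant kinases and 50 μM ATP plus γ-32P-ATP.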

Sequence of LTK, construct: aa450-end, human (P29376 450-864, looked up): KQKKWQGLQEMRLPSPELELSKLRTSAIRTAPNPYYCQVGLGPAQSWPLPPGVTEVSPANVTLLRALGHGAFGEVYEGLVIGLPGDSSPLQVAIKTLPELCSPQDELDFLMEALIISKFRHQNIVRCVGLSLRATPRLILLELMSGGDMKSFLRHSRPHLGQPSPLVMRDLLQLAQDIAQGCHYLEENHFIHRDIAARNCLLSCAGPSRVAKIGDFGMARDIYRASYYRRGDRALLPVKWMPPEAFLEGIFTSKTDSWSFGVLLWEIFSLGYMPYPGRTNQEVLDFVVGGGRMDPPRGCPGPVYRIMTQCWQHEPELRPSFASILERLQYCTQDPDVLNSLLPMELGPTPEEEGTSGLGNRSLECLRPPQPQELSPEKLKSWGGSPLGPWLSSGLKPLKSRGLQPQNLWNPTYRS

LTK, construct: aa450-end, human (from UniProt P29376)
relative phosphorylation
Settings	at +1	at +2	at +3	at +4	at +5	at -1	at -2	at -3	at -4	at -5
A fixed	2.49	0.74	0.654	0.78	0.895	0.879	1.07	0.891	1.26	1.05
D fixed	0.526	0.697	0.327	0.862	0.716	1.28	0.86	1.09	0.982	1.02
E fixed	1.34	0.934	0.278	0.952	0.642	0.877	0.963	1.49	1.21	0.905
F fixed	0.908	1.31	2.08	1.11	1.37	0.992	0.711	1.03	1.05	1.01
G fixed	0.74	0.404	0.61	0.982	1.12	0.345	1.17	0.983	1.19	1.19
H fixed	0.848	0.806	0.808	1.11	0.914	1.12	1.08	0.947	0.883	0.961
I fixed	1.23	1.1	2.95	0.875	1	2.47	1.01	0.705	0.762	0.839
K fixed	0.402	0.708	0.361	1.1	0.949	0.377	1.09	1.09	1.05	1.23
L fixed	1.07	1.41	1.38	0.85	1.04	2.06	0.934	0.916	1.01	0.999
M fixed	1.82	1.19	1.82	1.07	0.968	0.982	0.882	0.886	0.878	0.844
N fixed	0.476	0.908	0.445	0.822	0.855	1.27	0.986	1.18	0.858	1.17
P fixed	0.18	0.683	0.671	1.02	1.65	0.835	1.04	0.968	1.2	1.14
Q fixed	1.21	0.834	0.468	1.18	0.763	0.576	1.07	0.923	1.1	0.987
R fixed	0.564	1.21	0.453	1.28	1.19	0.372	1.35	1.29	1.51	1.32
S fixed	1.02	0.654	0.547	0.916	0.916	0.477	1.07	1	0.679	0.831
T fixed	0.833	0.609	0.786	0.851	1.07	0.866	1.09	0.91	0.602	0.703
V fixed	1.27	1.1	2.09	0.854	0.806	1.68	0.894	0.757	0.735	0.815
W fixed	1.07	2.71	1.27	1.37	1.14	0.536	0.731	0.943	1.04	0.993
pThr fixed	0.903	0.538	0.284	0.676	0.557	0.691	0.702	0.79	0.885	0.891
pTyr fixed	1.46	2.37	0.533	1.29	0.546	4.33	1.16	1.12	1.11	1.06
